The values that follow come from article PMC3945839 (Protein Science : A Publication of the Protein Society, 2014).

What all share (experiment): BLI
(In general: Biolayer interferometry detects binding as a change in optical thickness at a sensor tip.)

Assay [1] addresses N-terminal leucine peptide (X-GMMSC, X = leucine).
In assay [2] the target is N-terminal methionine peptide (X-GMMSC, X = methionine).
The target in assay [3] is T1, Methionine aminopeptidase from E. coli (E. coli, UniProt P0AE18 1-264).
T1 sequence: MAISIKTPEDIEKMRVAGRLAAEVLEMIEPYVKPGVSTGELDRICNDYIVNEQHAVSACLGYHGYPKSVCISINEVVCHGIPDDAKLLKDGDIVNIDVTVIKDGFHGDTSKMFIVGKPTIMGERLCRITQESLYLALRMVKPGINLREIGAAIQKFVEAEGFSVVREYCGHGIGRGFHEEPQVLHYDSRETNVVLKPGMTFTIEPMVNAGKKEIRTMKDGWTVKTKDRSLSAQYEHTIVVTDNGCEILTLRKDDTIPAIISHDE

Where no end group is shown, it is not given here. The star is where a group is joined. BMPH = NNC(=O)CCN1C(=O)CC(*)C1=O

For orientation: Kd means a measure of binding affinity in units of concentration. As a reminder, the koff is the rate constant with which the complex falls apart. Lower therefore signals a long-lived complex. By kon is commonly meant the rate constant with which the complex forms. Low readings indicate slow association, high ones fast association. For “eLAP, designed leucine aminopeptidase derived from E. coli methionine aminopeptidase (from UniProt P0AE18 4-264) (enzyme)”, in assay [1], the Kd is 0.826 µM, the koff was found to be 0.00142 s⁻¹ and the kon turned out to be 1720 M⁻¹ s⁻¹. In assay [2], the Kd is 19.1 µM, the koff came out at 0.00408 s⁻¹ and the kon is 214 M⁻¹ s⁻¹.
As to MGMMSC(BMPH) [N-terminal methionine peptide (X-GMMSC, X = methionine)], in assay [3], binding was characterised by a dissociation constant (Kd) of 2.65 µM, the koff is 0.00489 s⁻¹ and the kon was determined as 1850 M⁻¹ s⁻¹.
As for LGMMSC(BMPH) [N-terminal leucine peptide (X-GMMSC, X = leucine)], in assay [3], the Kd was 54.2 µM, the koff came out at 0.0147 s⁻¹ and the kon was found to be 271 M⁻¹ s⁻¹.
